Measurements taken from PMC8631942 (eLife, 2021).

Tests used:
[1] = target: T1, His10-PD-1^ICD PD-1^FY, pre-phosphorylated (human, UniProt Q15116 194-288, Y223F, pre-phosphorylated with Fyn; the only tyrosine is in the ITSM (Y248)); experiment: SPR; OpenSPR (Nicoya); pre-phosphorylated His10-tagged PD-1 or BTLA ICD immobilised on a Ni sensor chip (about 1500 RU); SH2 injected at 20-1000 nM, 20 μl/min; 20 mM HEPES, 150 mM NaCl, 5 mM imidazole, 0.05% Tween-20, 10% glycerol, pH 7.5; equilibrium analysis (Evaluate EC50, TraceDrawer); details: both partners purified
T1 construct: Monomeric fraction of the gel filtration was used; also called PD-1-ITSM; phosphorylated PD-1-ITSM; source: E. coli (pET28A), purified (Ni-NTA, gel filtration); phosphorylated with purified Fyn; not shown: His10, N-terminal, kept
T1 sequence (looked up): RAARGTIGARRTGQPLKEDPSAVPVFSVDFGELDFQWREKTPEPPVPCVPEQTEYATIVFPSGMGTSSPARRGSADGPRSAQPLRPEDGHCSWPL

[2] = target: T2, His10-BTLA^ICD BTLA^FFFY, pre-phosphorylated (human, UniProt Q7Z6A9 190-289, Y226F | Y243F | Y257F, pre-phosphorylated with Fyn; lone tyrosine (Y282) in the ITSM); experiment: as above; details: both partners purified
T2 construct: BTLA intracellular domain, human, aa 190-289; triple-tyrosine mutant; Monomeric fraction of the gel filtration was used; also called BTLA-ITSM; source: E. coli (pET28A), purified (Ni-NTA, gel filtration); phosphorylated with purified Fyn; not shown: His10, N-terminal, kept
T2 sequence (looked up): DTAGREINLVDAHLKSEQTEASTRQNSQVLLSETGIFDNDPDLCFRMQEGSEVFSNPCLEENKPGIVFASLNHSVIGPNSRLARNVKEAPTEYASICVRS

- Kd [1]: 1700 nM
- Kd [2]: 860 nM
B1: SNAP-SHP1-cSH2 (domain or fragment)
chain: WYHGHMSGGQAETLLQAKGEPWTFLVRESLSQPGDFVLSVLSDQPKAGPGSPLRVTHIKVMCEGGRYTVGGLETFDSLTDLVEHFKKTGIEEASGAFVYLRQPY
